The text below walks through data of paper PMC10085699.

Residue numbers refer to the chain shown, from its start.

One series deals with T1, SETX-HD-R/H (Homo sapiens, UniProt Q7Z333 1674-2677, R2136H).
T1 sequence: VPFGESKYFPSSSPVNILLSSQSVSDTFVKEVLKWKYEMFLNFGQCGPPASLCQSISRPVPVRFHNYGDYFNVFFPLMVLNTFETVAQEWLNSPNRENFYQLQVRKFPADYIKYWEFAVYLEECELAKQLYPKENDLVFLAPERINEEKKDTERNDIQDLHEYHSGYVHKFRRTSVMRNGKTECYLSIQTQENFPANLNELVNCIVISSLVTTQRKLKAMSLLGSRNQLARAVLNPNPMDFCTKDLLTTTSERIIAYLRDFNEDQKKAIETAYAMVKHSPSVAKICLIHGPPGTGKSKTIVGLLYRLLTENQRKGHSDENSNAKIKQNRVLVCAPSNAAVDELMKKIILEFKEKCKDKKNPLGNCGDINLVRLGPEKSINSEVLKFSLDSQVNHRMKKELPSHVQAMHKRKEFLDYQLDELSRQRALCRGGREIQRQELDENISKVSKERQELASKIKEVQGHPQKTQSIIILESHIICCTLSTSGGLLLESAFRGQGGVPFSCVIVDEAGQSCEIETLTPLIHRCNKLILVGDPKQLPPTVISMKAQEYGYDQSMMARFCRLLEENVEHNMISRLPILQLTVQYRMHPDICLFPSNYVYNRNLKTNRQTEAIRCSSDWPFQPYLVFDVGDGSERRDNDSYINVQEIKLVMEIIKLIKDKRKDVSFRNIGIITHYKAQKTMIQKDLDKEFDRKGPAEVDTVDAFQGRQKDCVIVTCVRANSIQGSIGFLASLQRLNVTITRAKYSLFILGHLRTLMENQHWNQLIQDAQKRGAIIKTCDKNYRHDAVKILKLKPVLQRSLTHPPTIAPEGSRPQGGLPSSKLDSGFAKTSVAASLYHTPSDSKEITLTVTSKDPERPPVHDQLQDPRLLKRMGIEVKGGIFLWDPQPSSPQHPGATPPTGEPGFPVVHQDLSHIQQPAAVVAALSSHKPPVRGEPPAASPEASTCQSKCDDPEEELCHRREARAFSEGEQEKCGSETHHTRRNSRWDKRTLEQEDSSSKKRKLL
The series can be described thus: EMSA. On the technique in general: A gel shift assay detects complexes by their altered migration in electrophoresis.

The target of the next series is T2, SETX-HD-V1884T (Homo sapiens, UniProt Q7Z333 1674-2677, V1884T).
T2 sequence: T1 sequence with V211T, H463R
The series can be described thus: EMSA.

B1: ssRNA pRMS678 (61 nt) (ssRNA)
RNA: UUGUCUUCUCAUAAAUUUAAUCCCCGUACGCUUAUACUCCUUUAACUACCCAGUCUUCCCG
In the case of B1, the binding result in the series with SETX-HD-R/H and with SETX-HD-V1884T was “binds” each time.
